The values that follow come from patent US20230159661A1 (ICHNOS SCIENCES, published 2023).

Numbering of substitutions follows the chain as printed.

For experiment [1], the target named is T1, CD3 on human T cells (PBMCs) (human, UniProt P07766 23-207).
T1 construct: whole, on cells; also called CD3ε; CD4+ T cells
The experiment in a line: flow cytometry on PBMCs, CD8+ T cells, anti-human IgG Fc-PE. The protocol: (§1) FACS simple binding was performed using PBMCs (to assess binding to CD3) or NCI-H1703 squamous cancer cells (to assess binding to EGFR). Cells were resuspended at 10⁶ cells/ml in FACS buffer (1×PBS+10% Versene+2% FBS), and 100 ul were added to U-bottom 96-well plates which were then centrifuged at 350 g for 3 min. […] The cells were washed in FACS buffer and stained with the following antibodies (ThermoFisher): anti-human CD4 PE-eF610 (1/100), anti-human CD8a APC (1/100) and anti-human IgG (Fc-gamma specific) PE (1/200) for 20 min 4° C. Cells were washed with FACS buffer and resuspended in FACS buffer containing Sytox green viability dye (1/200), for 20 min at 4° C. and acquired on a CytoFlex (Beckman Coulter).
(§2) For the PBMCs, the cells were also labelled with anti-CD4 or anti-CD8 antibodies.
(In general: Flow cytometry measures light scatter and fluorescence of single cells or particles in a stream.)

The target of experiment [2] is T1, CD3 on human T cells (PBMCs). The experiment can be described thus: flow cytometry on PBMCs, CD4+ T cells, anti-human IgG Fc-PE. How it is done:
as §1, §2

Experiment [3] addresses T2, human EGFR soluble extracellular region with C-terminal poly-histidine tag (hEGFR) (human, UniProt P00533 25-638).
T2 construct: also called human EGFR His-tagged protein; soluble human EGFR
The experiment in a line: ELISA, single EGFR binding, coated huEGFR-His, anti-human IgG Fab-HRP.

Experiment [4] concerns the target T2, human EGFR soluble extracellular region …. The experiment can be described thus: dual binding ELISA, coated human EGFR, detection with huCD3-biotin and streptavidin-HRP.
For experiment [5], the target named is T3, membrane-bound human EGFR receptor expressed on cells (human, UniProt P00533 25-1210).
T3 construct: whole, on cells; the construct transfected into BAF cells is not described; also called EGFR-transfected BAF cells
The experiment in a line: flow cytometry on NCI-H1703 squamous cancer cells, anti-human IgG Fc-PE. The protocol: as §1, §2

Experiment [6] deals with T1, CD3 on human T cells (PBMCs). The experiment can be described thus: flow cytometry on PBMCs, T cells, anti-human IgG Fc-PE. The protocol: as §1, §2
In another experiment the target is T4, hEGFR-IV_580-638 (human).
T4 construct: PCR amplified from the His-tagged hEGFR construct; purified on Ni sepharose
T4 chain: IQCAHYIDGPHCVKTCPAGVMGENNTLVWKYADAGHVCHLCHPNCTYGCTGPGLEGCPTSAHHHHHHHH
The experiment can be described thus: SPR, antibody captured on Protein G. How it is done:
(§3) Measurements were performed on a Biacore 2000 instrument (GE). […] Various human and cynomolgus EGFR constructs were injected as analyte at a concentration of 200 nM at a flow rate of 30 μl/min in HBS-EP buffer. Dissociation time was 4 min. After each binding event, the surface was regenerated with 10 μl of glycine buffer pH 1.5. To verify the integrity of the EGFR domain IV constructs, a polyclonal goat anti-EGFR known to us to contain at least one anti EGFR domain IV binder (AF231, Bio-Techne AG, Zug, Switzerland) was immobilized as described above and human and cynomolgus EGFR constructs were injected as described above.
A general note: Surface plasmon resonance follows binding to a sensor surface in real time, without labels.

The target of experiment [7] is T5, Cynomolgus EGFR-IV_580-638 (cynomolgus).
T5 chain: T4 chain with P58A, T59R
The experiment in a line: SPR, antibody captured on Protein G. How it is done:
as §3

The target of experiment [8] is T6, Cynomolgus EGFR-IV_556-638 (cynomolgus).
T6 chain: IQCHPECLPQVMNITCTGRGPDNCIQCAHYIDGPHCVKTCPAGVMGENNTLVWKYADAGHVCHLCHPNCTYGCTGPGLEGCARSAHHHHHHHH
The experiment can be described thus: SPR, chimeric antibody captured on Protein G, analyte 200 nM. The protocol:
as §3

For another experiment, the target named is T7, hEGFR-IV_556-638 (human).
T7 construct: PCR amplified from the His-tagged hEGFR construct; purified on Ni sepharose
T7 chain: T6 chain with V11A, A82P, R83T
The experiment is described as above. How it is done: as §3

In the next experiment the target is T8, hEGFR-I-II-III_hErbB3-IV (human).
T8 construct: also called chimeric EGFR I-III Her3 IV molecule; EGFR-Her3 chimeric molecule (B)
The experiment in a line: ELISA, coated antigen 2 ug/ml. How it is done:
Supernatants from both subclones were harvested and purified using a LC-kappa mouse affinity matrix (Life technologies), according to the manufacturer's instructions. These purified antibodies were tested by ELISA on 96-well plates coated with either soluble human EGFR or recombinant EGFR-Her3 chimeric constructs. These molecules were diluted at 2 ug/ml in PBS and immobilized overnight at 4° C. on a high binding 96-well plates. […] As a control, Panitumumab (Vectibix®) was used at the same concentrations. […] Following this incubation, the plates were washed and incubated with 100 ul of TMB substrate. The reaction was stopped by adding 100 μl of H₂SO₄ 2N and the absorbance was read at 450 nm on a Synergy HT2 spectrophotometer (Biotek, USA; distributor: WITTEC AG, Littau, Switzerland).

T1 sequence (P07766 23-207): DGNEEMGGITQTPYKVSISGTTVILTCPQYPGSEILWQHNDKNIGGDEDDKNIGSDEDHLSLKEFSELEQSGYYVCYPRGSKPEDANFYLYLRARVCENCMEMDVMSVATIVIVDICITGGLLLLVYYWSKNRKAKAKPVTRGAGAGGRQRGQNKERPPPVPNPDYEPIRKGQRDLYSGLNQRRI

B1: CD3×EGFR_SF3 (bispecific antibody, human IgG1, kappa, L234A L235A)
chain 1: EVQLVESGGGLVQPGGSLRLSCAASGFTFNTYAMNWVRQAPGKGLEWVARIRSKYNNYATYYADSVKSRFTISRDDSKNTLYLQMNSLRAEDTAVYYCVRHGNFGNSYVSYFAYWGQGTTVTVSSGGGGSGGGGSGGGGSEIVVTQSPATLSVSPGERATLSCRSSTGAVTESNYANWVQEKPGQAFRGLIGGANKRAPGVPARFSGSLSGDEATLTISSLQSEDFAVYYCALFYSNTWVFGQGTKLEIKGGGGTQVQLQESGPGLVKPSETLSLTCTVSGGSVSSGDYYWTWIRQSPGKGLEWIGHIYYSGNTNYNPSLKSRLTISIDTSKTQFSLKLSSVTAADTAIYYCVRDRVTGAFDIWGQGTMVTVSSASTKGPSVFPLAPSSKSTSGGTAALGCLVKDYFPEPVTVSWNSGALTSGVHTFPAVLQSSGLYSLSSVVTVPSSSLGTQTYICNVNHKPSNTKVDKKVEPKSCDKTHTCPPCPAPEAAGGPSVFLFPPKPKDTLMISRTPEVTCVVVDVSHEDPEVQFKWYVDGVEVHNAKTKPREEQYNSTFRVVSVLTVLHQDWLNGKEYKCKVSNKALPAPIEKTISKTKGQPREPAVYTLPPSREEMTKNQVKLVCLVTGFYPSDIAVEWESSGQPENNYYTTPPMLDSDGSFSLVSWLNVDKSRWQQGNIFSCSVMHEALHNRFTQKSLSLSPG
chain 2: not shown
chain 3: DKTHTCPPCPAPEAAGGPSVFLFPPKPKDTLMISRTPEVTCVVVDVSHEDPEVKFNWYVDGVEVHNAKTKPREEQYNSTYRVVSVLTVLHQDWLNGKEYKCKVSNKALPAPIEKTISKAKGQPREPEVATFPPSRDELTKNQVTLVCLVTGFYPSDIAVEWESNGQPENNYKTDPPLLESDGSFALSSRLRVDKSRWQQGNVFSCSVMHEALHNHYTQKSLSLSPG
notes: Batches AE042, P1069, P1027, TRS
Regarding B1, the EC50 – broadly, the concentration giving half of the maximal effect – was determined as 3.91 µg/mL in [1]; 6.05 µg/mL in [2]; 0.053 µg/mL in [3]; 0.171 µg/mL in experiment [4]; 0.182 µg/mL in [5]; 5.93 µg/mL in experiment [6].

B2: 3A6 chimeric antibody (antibody, human IgG1, kappa, V domains shown)
VH: QVQLKQSGPGLVQPSQSLSITCTVSGFSLTSYGVHWVRQSPGKGLEWLGVIWSGGTTDYNAAFISRLSISQDNSKSQVFFKMNSLQANDTAIYYCAGNQGRTVRPTWFAYWGQGTLVTVSS
VL: DILLTQSPAILSVSPGERVSFSCRASQSIGTSIHWYQQRANGSPRLLIKYASESISGIPSRFSGSGSGTDFTLSINSVESEDIAHYYCQQNSNWPLTFGAGTKLELKR
notes: Mouse-human chimeric IgG1 kappa; also called chimeric 3A6 antibody
As for B2, the binding result is given as “no binding (tested: 200 nM)” in the experiment with hEGFR-IV_580-638, “no binding (tested: 200 nM)” in experiment [7], “binds” in experiment [8] and “binds” with hEGFR-IV_556-638.

B3: 3A6 mouse hybridoma antibody (subclone 3A6A12B5) (antibody, V domains shown)
VH: B2 VH
VL: DILLTQSPAILSVSPGERVSFSCRASQSIGTSIHWYQQRANGSPRLLIKYASESISGIPSRFSGSGSGTDFTLSINSVESEDIAHYYCQQNSNWPLTFGAGTKLELK
notes: Tested as mouse IgG (kappa) from hybridoma: supernatant of the parental clone 3A6, purified antibody of the subclone 3A6A12B5; also called 3A6A12F5; 3A6 hybridoma candidate
Take B3: the binding result with hEGFR-I-II-III_hErbB3-IV was “no binding (tested: 10 to 0.01 µg/ml)”.

B4: 10E6 chimeric antibody (antibody, human IgG1, kappa, V domains shown)
VH: DVQLQESGPGRVKPSQSLSLTCTVTGYSLTSDYAWSWIRQFPGNRLEWMVYITYSGITTYNPSLKSRISITRDTSKNQFFLQLNSVTTEDTATYYCAGGDYGLSSWFAYWGQGTLVTVSS
VL: DIVLTQSPVTLSVTPGDRVSLSCRASQSISNYLHWYQQKSHESPRLLIKYASQSISGIPSRFSGSGSGTDFTLSINSVETEDFGMYFCQQSNNWPYTFGGGTKLEIKR
notes: Mouse-human chimeric IgG1 kappa; also called chimeric 10E6 antibody
B4: the binding result is “no binding (tested: 200 nM)” with hEGFR-IV_580-638, “no binding (tested: 200 nM)” in [7], “binds” in experiment [8] and “binds” with hEGFR-IV_556-638.

B5: 10E6 mouse hybridoma antibody (subclone 10E6F5) (antibody, V domains shown)
VH: B4 VH
VL: DIVLTQSPVTLSVTPGDRVSLSCRASQSISNYLHWYQQKSHESPRLLIKYASQSISGIPSRFSGSGSGTDFTLSINSVETEDFGMYFCQQSNNWPYTFGGGTKLEIK
notes: Tested as mouse IgG (kappa) from hybridoma: supernatant of the parental clone 10E6, purified antibody of the subclone 10E6F5; also called 10E6 hybridoma candidate
Turning to B5, in the experiment with hEGFR-I-II-III_hErbB3-IV, the binding result is recorded as “no binding (tested: 10 to 0.01 µg/ml)”.
